Source: US20240093246

System: cyanobacterial flavodoxin

Substance | flavodoxin photoreduction turnover rate | fold decrease of flavodoxin reduction against WT PSI | linear rate of flavodoxin photoreduction relative to JVD-1b^H6 PSI | linear rate of flavodoxin photoreduction relative to WT^H6 PSI
PSI-MeHydA complex (chimeric photosystem I carrying PsaC-MeHydA, from strain ΨH3^H6) | 0.7±0.1 Flvd s^-1 (PSI)^-1 | lowers flavodoxin reduction by a factor of 6-8 | 12.3±2.4% relative to JVD-1b^H6 PSI | ˜15.9±2.4% that of WT^H6
wild-type photosystem I purified from strain JVD-1B^H6 | 5.7±0.3 Flvd s^-1 (PSI)^-1 |  |  | 
wild-type photosystem I purified from strain WT^H6 (PBC4-2[pBSEP5.8]) | 4.4±0.6 Flvd s^-1 (PSI)^-1 |  |  | 
